Columns and labels:
[1] = target: T1, HGF/SF (hepatocyte growth factor/scatter factor) (UniProt P14210 32-728, limits assumed); assay: SPR (BIAcore), HGF/SF immobilized
Method: (§1) The binding affinity of the anti-HGF/SF Fab humanized antibody to HGF/SF was determined by SPR (Surface plasmon Resonance) on a BIAcore device (BIAcore, Sweden).
(§2) Specifically, HGF/SF was immobilized on a carboxymethyldextran-modified (CM5) sensor chip (Biacore AB) using 10 mM sodium acetate buffer (pH 4.0) at a flow rate of 5 μl/min with an amine coupling kit (Biacore AB) in accordance with the instruction of the kit. Then 4 anti-HGF/SF Fabs and SFN 68 as a control dissolved in phosphate buffered saline (PBS, pH 7.4) containing 0.005% Tween 20 (Sigma) was injected on the chip at 25° C. for 2 min at a flow rate of 30 μl/min, respectively. The anti-HGF/SF Fab humanized antibody was diluted to a varying concentration in the range of 1.25 to 200 nM. The surface was regenerated with 1 M NaCl/50 mM NaOH. The kinetic rate constants (kₒₙ and koff) as well as the equilibrium dissociation constant (KD) were determined by using BIA evaluation software.

[2] = target: T1, HGF/SF (hepatocyte growth …); assay: affinity examination of the HSFN 68 clones on HGF/SF, reference SFN68; method not named in this paragraph
[3] = target: T1, HGF/SF (hepatocyte growth …); assay: competition ELISA: HGF/SF coated on the plate, cMET/Fc chimera as the blocked ligand mixed with the varied Fab, bound cMET/Fc detected with HRP anti-human Fc, Abs. at 450 nm, triplicates
Method: A 96-well microplate was coated with 1 μg/ml of HGF/SF and blocked by repeating the procedure of (2-2) of Example 2. Then 25 μl of 2 nM cMET/Fc chimera (R&D systems, USA) mixed with 25 μl of 0 to 200 nM HSFN 68-13 or SFN 68 dissolved in TBSB was added to the HGF/SF coated wells. The plate was incubated for at 37° C. 1 hour and washed with TBS-T. The amount of bound cMET/Fc chimera was assessed with HRP-conjugated rabbit anti-human Fc specific IgG (Pierce) using ultra-TMB substrate solution (Pierce) as a substrate. After 30 min incubation, optical density was measured at 450 nm. All experiments were performed in triplicates, and the average and standard deviation of the optical densities are listed in FIG. 5.

[4] = target: T1, HGF/SF (hepatocyte growth …); assay: SPR (BIAcore), HGF/SF immobilized on CM5 chip, Fab injected
Method: as §1, §2

T1 sequence (P14210 32-728 limits assumed): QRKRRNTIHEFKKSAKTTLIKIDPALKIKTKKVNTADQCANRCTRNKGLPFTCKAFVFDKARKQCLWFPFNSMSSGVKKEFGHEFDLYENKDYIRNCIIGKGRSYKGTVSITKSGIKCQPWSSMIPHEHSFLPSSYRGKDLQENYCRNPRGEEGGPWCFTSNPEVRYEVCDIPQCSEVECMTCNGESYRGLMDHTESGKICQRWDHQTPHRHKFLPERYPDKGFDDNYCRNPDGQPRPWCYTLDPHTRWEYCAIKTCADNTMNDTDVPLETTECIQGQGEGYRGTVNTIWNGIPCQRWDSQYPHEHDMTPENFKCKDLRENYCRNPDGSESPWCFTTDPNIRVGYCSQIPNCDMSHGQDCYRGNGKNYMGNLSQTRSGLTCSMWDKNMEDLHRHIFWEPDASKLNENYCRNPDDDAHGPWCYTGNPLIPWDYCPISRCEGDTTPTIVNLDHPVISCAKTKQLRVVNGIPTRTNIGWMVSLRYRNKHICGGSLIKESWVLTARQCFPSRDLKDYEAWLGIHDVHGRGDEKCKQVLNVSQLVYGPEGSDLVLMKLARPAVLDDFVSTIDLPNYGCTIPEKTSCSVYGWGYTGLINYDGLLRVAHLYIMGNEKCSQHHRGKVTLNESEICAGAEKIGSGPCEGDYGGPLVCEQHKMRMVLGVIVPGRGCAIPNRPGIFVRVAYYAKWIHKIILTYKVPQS

Row | Binder | fold tighter affinity than SFN68 control [1] | fold higher affinity than SFN68 [2] | IC50 (read off the curve) [3] | Kd [4] | kon [4]
1 | HSFN 68-41 Fab (Fab, V domains shown, Fab with human Ckappa and human CH1, expressed from pComb3X in E. coli HB2151) VH: QQQLVESGGGLVQPGGSLRLSCAASGFTFSTYYMSWVRQAPGKGLEWVGYIGTSSGTTYYANSVKGRFTISSDNAKNSVYLQMNSLRPEDTAVYYCARGLGRINLWGQGTLVTVSS VL: ELQMTQSPSSVSASVGDRVTISCRASQDIRSLLAWYQQKPGKAPKLLIYKASTLESGVPSRFSGSGSGTEFTLTISNLQPDDFATYYCQQYSRYSGGTFGQGTKVEIRR |  |  |  | 10.6 nM | 106000 M⁻¹ s⁻¹
2 | HSFN 68-27 Fab (Fab, V domains shown, Fab with human Ckappa and human CH1, expressed from pComb3X in E. coli HB2151) VH: QVQLVESGGGLVKPGGSRRLSCAASGFTFSTYYMSWVRQAPGKGLEWIGYIGTSSGTTYYANSVKGRFTISSDNAQNSVYLQMNSLRPEDTAVYYCARGLGRINLWGQGTLVTVSS VL: ELQMTQSPSTLSASVGDRVTITCRASQSISSRLAWYQQKPGKAPKLLIYRASTLEGGVPSRFSGSGSGTEFTLTISGLQPDDFATYYCQQYSTFSPTFGQGTQVDIKR |  |  |  | 5.27 nM | 392000 M⁻¹ s⁻¹

More lines, in order of falling Kd [4], values ahead:

Row | fold tighter affinity than SFN68 control [1] | fold higher affinity than SFN68 [2] | IC50 (read off the curve) [3] | Kd [4] | kon [4] | Binder
3 |  |  |  | 43.1 nM | 32400 M⁻¹ s⁻¹ | HSFN 68-16 Fab (Fab, V domains shown, Fab with human Ckappa and human CH1, expressed from pComb3X in E. coli HB2151) VH: QQQLVESGGGLVQPGGSLRLSCAASGFTFSTYYMSWIRQAPGKGLEWIGYIGTSSGTTYYANSVKGRFTISSDNAQNSVYLQMNSLRPEDTAVYYCARGLGRINLWGQGTLVTVSS VL: ELVMTQSPSTLSASVGDRVTITCRASQSISSWLAWYQQKPGKAPKLLIYKASTLESGVSSRFSGGGSGTEFTLTISSLQPDDFATYYCQQYSRYSGGTFGQGTKVEIRR
4 | ~6 fold | ~6 fold | ~2 nM | 2.09 nM | 647000 M⁻¹ s⁻¹ | HSFN 68-13 Fab (Fab, V domains shown, also called anti-HGF/SF Fab humanized antibody) VH: QQQLVESGGGVVRPGGSLRLSCAASGFTFSTYYMSWVRQAPGKGLEWIGYIGTSSGTTYYANSVKGRFTISSDNAKNSVYLQMNSLRPEDTAVYYCARGLGRINLWGPGTLVTVSS VL: ELQMTQSPSSLSASVGDRVTITCRASQSISTWLAWYQQKPGKAPKLLIYKASTLESGVPLRFSGGGSGTDFTLTISSLQSEDFATYFCQQSYSLPPTFGQGTKVEVKR

From US20080038256A1 (SEOUL NATIONAL UNIVERSITY INDUSTRY FOUNDATION, published 2008)
